Paper PMC6238593, “Beetle luciferases with naturally red- and blue-shifted emission” (Life Science Alliance, 2018)
Numbering of substitutions follows the chain as printed. Each block holds one compound with its values, some of them ahead of it.

Legend:
[1] = target: T1, REPh (red-emitting luciferase from P. hirtus) (Phrixothrix hirtus, UniProt Q9U4U7); assay: differential scanning calorimetry; type: binding; conditions: 35 °C without ligand, Hepes 20 mM pH 7.8, MgCl2 10 mM, ligand 5 uM (methods) or 5 mM (Figure S10 legend)
T1 construct: full-length synthetic codon-optimised gene in pET28-MHL, E. coli BL21-CodonPlus-RIL, Ni and size-exclusion purified; about 61 kDa monomer, tetramer in solution; PDB codes 6AAA, 6ABH, 6AC3 printed without assignment to protein
T1 sequence (Q9U4U7 1-546): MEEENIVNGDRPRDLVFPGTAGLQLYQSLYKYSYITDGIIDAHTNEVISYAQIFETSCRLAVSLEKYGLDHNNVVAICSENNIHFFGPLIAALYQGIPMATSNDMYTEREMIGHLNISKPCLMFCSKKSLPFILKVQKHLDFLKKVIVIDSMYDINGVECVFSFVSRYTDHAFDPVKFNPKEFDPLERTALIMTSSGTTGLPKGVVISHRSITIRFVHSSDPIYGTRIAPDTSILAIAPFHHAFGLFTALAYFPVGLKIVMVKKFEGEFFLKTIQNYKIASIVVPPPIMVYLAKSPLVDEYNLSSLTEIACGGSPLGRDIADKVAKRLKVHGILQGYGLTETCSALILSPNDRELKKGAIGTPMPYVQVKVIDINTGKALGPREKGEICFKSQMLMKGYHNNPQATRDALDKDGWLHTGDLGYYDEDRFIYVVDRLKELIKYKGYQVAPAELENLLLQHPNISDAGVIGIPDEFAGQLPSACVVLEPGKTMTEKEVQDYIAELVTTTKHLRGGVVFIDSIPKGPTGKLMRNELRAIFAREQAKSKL

[2] = target: T2, GBAv (blue-shifted green-emitting luciferase from A. vivianii) (Amydetes, UniProt A0A3F2YLV6); assay: bioluminescence emission spectra; type: biochemical; conditions: pH 7.0 to 8.0
T2 construct: full-length synthetic codon-optimised gene in pET28a+, E. coli BL21-CodonPlus-RIL, Ni and size-exclusion purified; monomer; PDB codes 6AAA, 6ABH, 6AC3 printed without assignment to protein
T2 sequence (A0A3F2YLV6 1-547): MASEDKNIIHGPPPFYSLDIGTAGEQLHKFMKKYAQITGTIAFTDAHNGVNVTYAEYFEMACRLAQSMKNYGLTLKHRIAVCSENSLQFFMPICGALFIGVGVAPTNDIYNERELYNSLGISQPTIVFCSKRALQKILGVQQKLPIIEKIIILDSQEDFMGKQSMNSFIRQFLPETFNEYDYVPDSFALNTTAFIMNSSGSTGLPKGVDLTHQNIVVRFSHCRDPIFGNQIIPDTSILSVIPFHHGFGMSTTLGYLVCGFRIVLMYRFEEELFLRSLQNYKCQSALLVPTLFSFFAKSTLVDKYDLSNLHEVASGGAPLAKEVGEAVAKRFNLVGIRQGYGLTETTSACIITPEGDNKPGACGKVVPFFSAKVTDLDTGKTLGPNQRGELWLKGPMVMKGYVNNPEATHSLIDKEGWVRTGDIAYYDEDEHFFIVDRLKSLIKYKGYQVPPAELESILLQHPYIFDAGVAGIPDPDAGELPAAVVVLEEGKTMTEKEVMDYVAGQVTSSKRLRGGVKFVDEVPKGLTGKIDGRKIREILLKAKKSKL

[3] = target: T3, REPh (red-emitting luciferase from P. hirtus) (Phrixothrix hirtus, UniProt Q9U4U7, K522A); assay: differential scanning calorimetry; type: binding; conditions: Hepes 20 mM pH 7.8, MgCl2 10 mM; ligand 5 uM (methods) or 5 mM (Figure S10 legend)
T3 construct: full-length synthetic codon-optimised gene in pET28-MHL, E. coli BL21-CodonPlus-RIL, Ni and size-exclusion purified; about 61 kDa monomer, tetramer in solution; PDB codes 6AAA, 6ABH, 6AC3 printed without assignment to protein
T3 sequence (Q9U4U7 1-546 K522A): T1 sequence (Q9U4U7 1-546) with K522A

[4] = target: red-emitting luciferase from Phrixothrix hirtus, double mutant Y153A/F162A (Phrixothrix hirtus); assay: SEC; Superdex 200 5/150 GL; MWs estimated with a gel filtration calibration kit
[5] = target: red-emitting luciferase from Phrixothrix hirtus, mutant F162A (Phrixothrix hirtus); assay: as above
[6] = target: red-emitting luciferase from Phrixothrix hirtus, mutant Y153A (Phrixothrix hirtus); assay: as above
[7] = target: red-emitting luciferase from the glow-worm Phrixothrix hirtus, wild type (Phrixothrix hirtus); assay: as above
[8] = target: red-emitting luciferase from the glow-worm Phrixothrix hirtus, wild type (Phrixothrix hirtus); assay: crystal structure; REPh free enzyme, P3(1)21 crystal form, 3.60 Å; PEG 3350 19-21%, bis-tris propane 100 mM pH 6.0, ammonium sulfate 200 mM
[9] = target: red-emitting luciferase from the glow-worm Phrixothrix hirtus, wild type (Phrixothrix hirtus); assay: crystal structure; REPh free enzyme, P1 crystal form, 3.05 Å; only the N-terminal domains seen; PEG 3350 19-21%, bis-tris propane 100 mM pH 6.0, ammonium sulfate 200 mM

Compound: Nc1ncnc2c1ncn2[C@@H]1O[C@H](COP(=O)(O)OP(=O)(O)OP(=O)(O)O)[C@@H](O)[C@H]1O [ATP]
Tm ([1]; two transitions with ligand, in °C (unit assumed)): 36 and 41
bioluminescence emission spectra ([2]; co-substrate luciferin): The emission of WT GBAv was pH-dependent
Tm [3]: signal was detectable only after the addition of substrate, luciferin or ATP

Compound: O=C(O)[C@H]1CSC(c2nc3ccc(O)cc3s2)=N1 [firefly luciferin]
Tm ([1]; Tm with ligand): 41 °C
bioluminescence emission spectra ([2]; co-substrate ATP): The emission of WT GBAv was pH-dependent

Compound: red-emitting luciferase from Phrixothrix hirtus, double mutant Y153A/F162A (enzyme)
stoichiometry N [4]: 2

Compound: red-emitting luciferase from the glow-worm Phrixothrix hirtus, wild type (enzyme)
stoichiometry N [7]: 4
stoichiometry N [8]: 4
stoichiometry N [9]: 8

The next lines start with the values.

stoichiometry N [5]: 2
Compound: red-emitting luciferase from Phrixothrix hirtus, mutant F162A (enzyme)

stoichiometry N [6]: 2
Compound: red-emitting luciferase from Phrixothrix hirtus, mutant Y153A (enzyme)
